According to patent publication US6379943, “High-efficiency Cre/loxp based system for construction of adenovirus vectors” (Merck & Co., Inc.):

B1: loxP linker AB3233/AB3234 (dsDNA)
DNA 1: GATCCAATAACTTCGTATAGCATACATTATACGAAGTTATAAGTACTGAATTCG
DNA 2: GATCCGAATTCAGTACTTATAACTTCGTATAATGTATGCTATACGAAGTTATTG

Legend:
[1] = biological target: Cre recombinase (Bacteriophage P1?) (UniProt P06956); test: cell_activity; settings: plasmids lacking lox; 5 plaques in 293 without Cre, homologous recombination background
Sequence of Cre recombinase (Bacteriophage P1?) (P06956 whole entry): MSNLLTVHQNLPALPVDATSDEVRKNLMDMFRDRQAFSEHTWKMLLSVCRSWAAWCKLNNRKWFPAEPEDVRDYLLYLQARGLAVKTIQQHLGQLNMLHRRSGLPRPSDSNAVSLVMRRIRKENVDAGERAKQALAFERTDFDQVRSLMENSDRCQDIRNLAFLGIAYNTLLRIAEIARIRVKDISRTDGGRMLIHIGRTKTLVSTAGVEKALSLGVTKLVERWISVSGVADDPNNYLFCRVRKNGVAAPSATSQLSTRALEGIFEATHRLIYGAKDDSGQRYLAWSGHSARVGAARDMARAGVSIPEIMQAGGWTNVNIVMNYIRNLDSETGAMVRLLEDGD

[2] = biological target: Cre recombinase (UniProt P06956 P06956:1-343); test: cell_activity; pCA36lox x pBHG10lox cotransfection; 168 plaques in 293Cre4 vs 4 in 293 (12 dishes each); settings: tags: stably expressed in 293Cre4 cells; chain copies: 4; BamHI/BglII overhangs
Sequence of Cre recombinase (P06956 whole entry, one chain of several): as the sequence (P06956 whole entry) above
Excerpt: The efficiency of Cre/lox mediated recombination was compared with that of homologous recombination, by measuring the numbers of virus plaques obtained from cotransfections of 293 cells versus the numbers obtained following cotransfections of 293Cre4 cells (see, for example, U.S. patent application Ser. No. 08/473,168, filed Jun. 7, 1995; see also WO96/40955, hereby incorporated by reference).
Coupled with the fact that the only infectious virus present in the transfected cell preparation are recombinants, rather than contaminating starting virus, the efficiency, cleanliness and convenience of this method in comparison to known methods represent significant advances in the art. Thus, with this new method it will be possible to reduce the amount of plasmid DNA used in cotransfections and reduce the number of dishes of 293 (293Cre) cells needed in cotransfections for rescue of viral vectors. It will also aid in the rescue of constructs which, for unknown reasons, might be otherwise difficult to rescue (e.g. rescue of vectors containing large foreign DNA inserts in E1 is often inefficient for reasons that are not known).

| Molecule | activity (plaques (12 dishes)) [1] | activity [2] |
| --- | --- | --- |
| no-lox plasmid pair pCA36:pBHG10 | 7 |  |
| B1 |  | 35 fold over homologous recombination |
